Source: US5985616, “Chimeric mammalian NPY Y5 receptors” (Schering Corporation, dated 1999)
Each block holds one binder with its values, some of them ahead of it.

Columns and labels:
[1] = target: T1, rat/human hybrid NPY Y5 receptor (rat/human chimera); test: competition with 0.1 nM [125I]PYY, membranes of COS1 cells transiently expressing the receptor
T1 chain: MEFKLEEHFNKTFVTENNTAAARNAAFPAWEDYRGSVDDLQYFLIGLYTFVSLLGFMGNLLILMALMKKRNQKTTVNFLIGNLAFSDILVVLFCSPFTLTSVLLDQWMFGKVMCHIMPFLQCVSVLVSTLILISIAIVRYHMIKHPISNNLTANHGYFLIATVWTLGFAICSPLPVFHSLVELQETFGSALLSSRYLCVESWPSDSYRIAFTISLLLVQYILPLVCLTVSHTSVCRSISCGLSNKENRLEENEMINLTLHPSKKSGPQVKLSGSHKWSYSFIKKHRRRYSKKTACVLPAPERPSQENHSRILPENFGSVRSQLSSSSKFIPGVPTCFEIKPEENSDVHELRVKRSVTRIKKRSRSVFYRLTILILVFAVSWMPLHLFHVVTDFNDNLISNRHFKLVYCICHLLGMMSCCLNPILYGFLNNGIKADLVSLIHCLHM
Protocol: (§1) PYY and 2.5–5 ug of membrane protein (50 ul final volume). […] PYY and various concentrations of competing peptides (200 ul final volume). […] Binding assays were incubated at room temperature for 90 minutes and were terminated by rapid vacuum filtration through glass fiber filters in 96-well format (Multiscreen FB Filter Plates, Millipore, Bedford, Mass. or Unifilter-96 GF/C, Packard, Meriden, Conn.) Prior to filtration the glass fiber filters were pretreated with 100 ul of 0.3 % polyethylenimine. Each filter was then washed 3 times with 100 ul of PBS. Radioactivity trapped on the filters was then counted by standard gamma counting techniques.
(§2) Peptide affinities were measured in competition binding assays with membranes from COS1 cells transiently expressing the human Y_5 and rat/human hybrid Y_5 receptors.

human NPY Y5 receptor [2] = target: T2, human NPY Y5 receptor (human, UniProt Q15761); test: as above
Protocol: as §1, §2

[3] = target: T1, rat/human hybrid NPY Y5 receptor; test: radioligand binding at 100 pM [125I]PYY, membranes of COS1 cells transiently expressing the construct
Protocol: as §1
(§3) All receptors were expressed transiently in COS1 cells.

human NPY Y5 receptor [4] = target: T2, human NPY Y5 receptor; test: as above
Protocol: as §1, §3

[5] = target: rat NPY Y5 receptor expressed from pCR3.1-rY5A (rat, UniProt Q63634); test: as above
Protocol: as §1, §3

- Ki [1]: 75.6 nM
- Ki (human NPY Y5 receptor [2]): 60 nM
Binder: APLEPMYPGDYATHEQRAQYETQLRRYINTLTRPRY (ligand) [Rat PP]

- Ki [1]: 2.86 nM
Binder: APLEPVYPGDNATPEQMAQYAADLRRYINMLTRPRY (ligand) [Human PP]

- Level of Expression (fmol/mg protein), radioligand bound at 100 pM [3]: 298 fmol/mg protein
- Level of Expression (fmol/mg protein), radioligand bound at 100 pM (human NPY Y5 receptor [4]): 103 fmol/mg protein
- Level of Expression (fmol/mg protein), radioligand bound at 100 pM [5]: 100 fmol/mg protein
B1: [125I] porcine peptide YY (ligand)
peptide: not shown
modifications: 125I label
